Measurements reported in patent publication EP1073891B1, “METHOD OF PREDICTING RECEPTOR MODULATING ACTIVITY” (Duke University, priority 1998, dated 1999).

Key:
[1] = target: T1, ER (Homo sapiens, UniProt P03372); test: Disruption of tamoxifen activated ER transcription on several promoters (1x-ERE-Luc, 3X-ERE-Luc, TK-ERE-Luc, C3-Luc) (Example 4.5); format: cell-based; conditions: tamoxifen (10nM), TK-ERE-Luc and C3-Luc
T1 construct: expressed in transfected cells; host or cells: HepG2
T1 sequence (P03372 1-595): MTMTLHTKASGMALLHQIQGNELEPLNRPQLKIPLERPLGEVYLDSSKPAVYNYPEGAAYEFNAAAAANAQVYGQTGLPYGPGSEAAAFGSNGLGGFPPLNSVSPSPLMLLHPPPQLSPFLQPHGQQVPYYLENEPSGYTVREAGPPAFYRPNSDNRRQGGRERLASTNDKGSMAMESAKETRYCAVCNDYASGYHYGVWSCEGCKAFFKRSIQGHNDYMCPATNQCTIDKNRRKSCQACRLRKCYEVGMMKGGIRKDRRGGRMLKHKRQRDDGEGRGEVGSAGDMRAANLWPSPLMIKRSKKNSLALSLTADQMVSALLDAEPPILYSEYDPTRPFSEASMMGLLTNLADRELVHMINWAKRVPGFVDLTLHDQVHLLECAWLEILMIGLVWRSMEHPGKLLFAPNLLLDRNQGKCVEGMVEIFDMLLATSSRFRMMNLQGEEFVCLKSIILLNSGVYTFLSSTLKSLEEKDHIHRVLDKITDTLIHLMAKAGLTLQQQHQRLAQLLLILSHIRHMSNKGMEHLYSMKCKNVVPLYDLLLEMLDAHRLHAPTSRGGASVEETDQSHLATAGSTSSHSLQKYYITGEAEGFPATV

[2] = target: T2, ERα (Homo sapiens, UniProt P03372); test: Phage ELISA / fingerprint on ER immobilized on biotinylated ERE (Examples 2.3-2.5); format: binding; design: purchased PanVera Corporation, Madison, WI; conditions: for binding to ERα in the in vitro phage display system: presence or absence of estradiol / 4-OH-tamoxifen
T2 sequence (P03372 1-595): T1 sequence (P03372 1-595)

## SSLTSRDFGSWYASR [α II]
[1]
  block of tamoxifen activated transcription on distinct promoters: blocks tamoxifen partial agonist activity from all promoters tested
[2]; in the presence of modulators
  binding of the probe to ER α: binds to ER α in the presence of any compound that binds to the estrogen receptor
[2]
  binding to ERα in the in vitro phage display system: bind in the presence of estradiol and 4-OH-tamoxifen, but not in their absence

## SSWDMHQFFWEGVSR [α/β III]
[2]
  binding to ERα in the in vitro phage display system: binds to ERα only in the presence of 4-OH-tamoxifen
